This note sets out measurements from patent US20150150950.

Series [1] relates to GST-GSK3β T^43A mutant (kinase inactive, K^84A).
Series [2] relates to Recombinant kinase-active GSK3α.
For series [3], the system named is GST-GSK3α (Cell Signaling, boiled to inactivate).
Series [4] concerns inactive wildtype GST-GSK3β (K^84A kinase inactivating mutation).
The subject of series [5] is active GST-GSK3β-T^43A mutant.
Series [6] deals with purified active wildtype GST-GSK3β.
The test system of series [7] is GST-GSK3β T^390A/T^43A double mutant (kinase inactive, K^84A).
Series [8] has as its system GST-GSK3β T^390A mutant (kinase inactive, K^84A).
The subject of series [9] is active GST-GSK3β-T^390A mutant.

purified recombinant active p38 MAPK (Cell Signaling), sequence (Q16539 2-360): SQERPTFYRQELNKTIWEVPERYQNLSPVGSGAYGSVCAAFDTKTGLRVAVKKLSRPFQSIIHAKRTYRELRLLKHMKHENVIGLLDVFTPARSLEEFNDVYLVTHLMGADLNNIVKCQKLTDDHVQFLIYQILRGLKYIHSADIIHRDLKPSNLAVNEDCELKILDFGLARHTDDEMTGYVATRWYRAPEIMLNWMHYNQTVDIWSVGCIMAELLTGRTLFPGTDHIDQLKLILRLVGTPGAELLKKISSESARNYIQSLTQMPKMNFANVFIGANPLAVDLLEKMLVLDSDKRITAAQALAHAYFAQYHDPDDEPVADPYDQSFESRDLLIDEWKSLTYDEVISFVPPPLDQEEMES
Recombinant kinase-active GSK3α, sequence (P49840 2-483): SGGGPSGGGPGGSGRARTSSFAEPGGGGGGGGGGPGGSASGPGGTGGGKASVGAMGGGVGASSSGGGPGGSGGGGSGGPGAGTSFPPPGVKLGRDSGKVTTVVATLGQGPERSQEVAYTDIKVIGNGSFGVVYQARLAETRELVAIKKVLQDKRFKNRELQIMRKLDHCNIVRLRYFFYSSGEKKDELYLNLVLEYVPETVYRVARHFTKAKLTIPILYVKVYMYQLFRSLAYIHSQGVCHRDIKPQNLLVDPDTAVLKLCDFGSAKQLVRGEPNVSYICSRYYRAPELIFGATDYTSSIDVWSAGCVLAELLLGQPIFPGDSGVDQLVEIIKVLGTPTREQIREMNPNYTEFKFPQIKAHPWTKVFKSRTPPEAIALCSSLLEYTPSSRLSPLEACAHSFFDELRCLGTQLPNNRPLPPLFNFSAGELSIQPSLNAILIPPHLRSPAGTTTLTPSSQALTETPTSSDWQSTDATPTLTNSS
p38 MAPK in 293T cells, sequence (Q16539 2-360): as the sequence (Q16539 2-360) above

“purified recombinant active p38 MAPK (Cell Signaling)”: the “in vitro kinase assay (^32P incorporation)” value was “p38 MAPK was still able to partially phosphorylate a GSK3β-T^43A mutant” in series [1], “phosphorylation of the GSK3β-T^43A/T^390A mutant was abrogated” in series [7] and “Phosphorylation of the GSK3β-T^390A mutant by p38 MAPK was partially reduced but not abrogated” in series [8]. In series [2], the “GSK3α activity (in vitro kinase assay, GSM substrate peptide) after preincubation with p38 MAPK” value is “p38 MAPK did not affect the activity of GSK3α”. The “in vitro kinase assay (^32P incorporation into GSK3α)” value in [3] is “GSK3α was not phosphorylated by recombinant p38 MAPK in vitro”. For the same substance, the “in vitro kinase assay (^32P incorporation into GSK3β)” value in [4] is “A purified recombinant activated p38 MAPK also phosphorylated GSK3β in vitro and this phosphorylation was blocked by SB203580”. Also, the “GSK3β activity (in vitro kinase assay, GSM substrate peptide) after preincubation with p38 MAPK” value in [5] is “p38 MAPK inhibited both wild-type GSK3β and GSK3β-T^43A mutant”; in [6], “p38 MAPK inhibited both wild-type GSK3β and GSK3β-T^43A mutant”.

For the substance p38 MAPK in 293T cells, the “in vitro p38 MAP kinase assay (^32P incorporation into GSK3β)” value in series [4] was “p38 MAPK immunoprecipitated from MKK6 thymocytes or MKK6-transfected 293T cells phosphorylated recombinant catalytically-inactive GSK3β in vitro and this phosphorylation was blocked by the p38 MAPK inhibitor”.

Regarding recombinant active Akt (Cell Signaling), the “GSK3β activity (in vitro kinase assay, GSM substrate peptide) after preincubation with Akt” value was “Akt inhibited wild-type GSK3β and the two mutants” in series [9]; “Akt inhibited wild-type GSK3β and the two mutants” in series [5]; “Akt inhibited wild-type GSK3β and the two mutants” in [6].

On to recombinant active ERK (Cell Signaling), for which the “in vitro kinase assay (^32P incorporation)” value in series [1] and in [8] was “The T^43A mutation but not the T^390A mutation abrogated phosphorylation of GSK3β by ERK” in each case.
